In patent publication US20230192896A1 (BIOVERATIV THERAPEUTICS, published 2023):

How the values were obtained:
[1] = molecular target: T1, free FIXa (activated Factor IX) (human, UniProt P00740 47-191; P00740 227-461); assay: BLI, IgG on AHQ sensor, 100 nM antigen (the weaker partner)
T1 construct: BLI antigen bought from Haematologic Technologies (HCIXA-0050); also called factor IXa

FXa-SM (FXa+EGR-CMK) = molecular target: T2, FXa-SM (FXa+EGR-CMK) (human, UniProt P00742 41-179; P00742 235-488, EGR-CMK covalently bound to the active site); assay: BLI; class meaning: paragraph 285
T2 construct: Bought from Haematologic Technologies (HCXA-EGR); also called covalently modified FXa; FXa mimic

[2] = molecular target: T1, free FIXa (activated Factor IX); assay: BLI, 200 nM FIXa in HBS with or without 5 mM CaCl2
FIXa-SM (FIXa+EGR-CMK) [3] = molecular target: T3, FIXa-SM (FIXa+EGR-CMK) (human, UniProt P00740 47-191; P00740 227-461, EGR-CMK (L-Glu-Gly-Arg chloromethyl ketone) covalently bound to the active site); assay: BLI; class meaning: paragraph 914
T3 construct: BLI antigen bought from Haematologic Technologies (HCIXA-EGR); also called FIXa with substrate mimic

[4] = molecular target: T1, free FIXa (activated Factor IX); assay: not stated (FIG. 24B)
[5] = molecular target: T4, FIX zymogen (non-activatable FIX) (human, UniProt P00740 47-461); assay: not stated (FIG. 24B)
T4 construct: also called FIXn; Factor IX zymogen

FX zymogen [6] = molecular target: T5, FX zymogen (Homo sapiens (Human), UniProt P00742 41-179; P00742 183-488); assay: not stated (FIG. 24B)
T5 construct: Light and heavy chain of secreted FX zymogen, disulfide linked; also called Factor X zymogen; factor X zymogen

[7] = molecular target: T1, free FIXa (activated Factor IX); assay: cell-based or functional assay
[8] = molecular target: T1, free FIXa (activated Factor IX); assay: Fab mixed 1.5:1 with FIXa, complex purified by size exclusion chromatography
FIXa-SM (FIXa+EGR-CMK) [9] = molecular target: T3, FIXa-SM (FIXa+EGR-CMK); assay: BLI co-binding: biotinylated FIXa-SM on streptavidin sensor, then 100 nM bispecific, then 200 nM FX
FX zymogen [10] = molecular target: T5, FX zymogen; assay: not stated (Table 3)
activated Factor X (FXa) = molecular target: T6, activated Factor X (FXa) (Homo sapiens (Human), UniProt P00742 41-179; P00742 235-488); assay: BLI, antibody on AHQ sensor
T6 construct: also called free FXa; factor Xa
T6 sequence (P00742 41-179, chain 1 of 2): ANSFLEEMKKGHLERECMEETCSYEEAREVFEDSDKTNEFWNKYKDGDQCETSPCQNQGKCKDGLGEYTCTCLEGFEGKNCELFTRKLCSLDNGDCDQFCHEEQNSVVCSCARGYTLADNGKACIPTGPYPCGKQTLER
T6 sequence (P00742 235-488, chain 2 of 2): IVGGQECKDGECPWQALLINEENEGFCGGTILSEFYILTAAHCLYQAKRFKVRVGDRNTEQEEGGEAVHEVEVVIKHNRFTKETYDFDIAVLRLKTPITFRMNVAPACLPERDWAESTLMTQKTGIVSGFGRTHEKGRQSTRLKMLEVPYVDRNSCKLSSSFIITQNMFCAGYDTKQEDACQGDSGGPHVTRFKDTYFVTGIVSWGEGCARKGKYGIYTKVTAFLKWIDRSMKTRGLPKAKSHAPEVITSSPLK

T2 sequence (P00742 41-179, chain 1 of 2): as the sequence (P00742 41-179, chain 1 of 2) above
T2 sequence (P00742 235-488, chain 2 of 2): as the sequence (P00742 235-488, chain 2 of 2) above
T5 sequence (P00742 41-179, chain 1 of 2): as the sequence (P00742 41-179, chain 1 of 2) above
T5 sequence (P00742 183-488, chain 2 of 2): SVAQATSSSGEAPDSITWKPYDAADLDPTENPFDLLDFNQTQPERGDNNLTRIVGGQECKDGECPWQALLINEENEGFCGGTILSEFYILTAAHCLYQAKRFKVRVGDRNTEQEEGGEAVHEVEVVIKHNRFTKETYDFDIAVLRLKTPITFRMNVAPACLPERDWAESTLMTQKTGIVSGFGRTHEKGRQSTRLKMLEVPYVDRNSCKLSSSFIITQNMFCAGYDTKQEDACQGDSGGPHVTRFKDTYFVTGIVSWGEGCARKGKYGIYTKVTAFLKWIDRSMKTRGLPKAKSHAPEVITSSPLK

B1: BIIB-9-397 (antibody, V domains shown)
VH: QVQLQESGPGLVKPSETLSLTCAVSGYSISSGYYWAWIRQPPGKGLEWIGSIYHSGSTYYNPSLKSRVTISVDTSKNQFSLKLSSVTAADTAVYYCARDVWYVGGFDPWGQGTLVTVSS
VL: DIQMTQSPSSLSASVGDRVTITCQASQDISNYLNWYQQKPGKAPKLLIYDASNLETGVPSRFSGSGSGTDFTFTISSLQPEDIATYYCQQSDDHPPTFGGGTKVEIK
notes: IgG
**Q.** Does B1 bind [1]?
**A.** binds

B2: BIIB-9-612 (antibody, V domains shown)
VH: QVQLVQSGAEVKKPGASVKVSCKASGYTFTSYYMHWVRQAPGQGLEWMGIINPSGGSTSYAQKFQGRVTMTRDTSTSTVYMELSSLRSEDTAVYYCARDAGYHWYGMDVWGQGTTVTVSS
VL: EIVLTQSPATLSLSPGERATLSCRASQSVSRYLAWYQQKPGQAPRLLIYDASNRATGIPARFSGSGSGTDFTLTISSLEPEDFAVYYCQQSSLFPLTFGGGTKVEIK
notes: IgG
**Q.** Does B2 bind [1]?
**A.** binds

B3: BIIB-12-1321 (antibody, V domains shown)
VH: QVQLVQSGAEVKKPGSSVKVSCKASGGTFSSYAISWVRQAPGQGLEWMGGIIPIFGTANYAQKFQGRVTITADESTSTAYMELSSLRSEDTAVYYCARTPDTSSATDWGQGTLVTVSS
VL: EIVMTQSPATLSLSPGERATLSCRASQSVSSYLAWYQQKPGQAPRLLIYDSSNRATGIPARFSGSGSGTDFTLTISSLEPEDFAVYYCQQFTNLPYTFGGGTKVEIK
notes: IgG
**Q.** Does B3 bind (FXa-SM (FXa+EGR-CMK))?
**A.** binds

B4: BIIB-9-484 (antibody, V domains shown)
VH: EVQLVESGGGLVKPGGSLRLSCAASGFTFSSYSMNWVRQAPGKGLEWVSSISSSSSYIYYADSVKGRFTISRDNAKNSLYLQMNSLRAEDTAVYYCARDVGGYAGYYGMDVWGQGTTVTVSS
VL: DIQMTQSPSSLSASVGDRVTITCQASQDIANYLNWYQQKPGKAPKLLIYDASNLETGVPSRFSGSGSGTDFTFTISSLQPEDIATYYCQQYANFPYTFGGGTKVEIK
notes: IgG
**Q.** Which results are given for B4?
**A.** binding result [2]: binds; binding result (FIXa-SM (FIXa+EGR-CMK) [3]): binds

B5: BS-027125 (bispecific antibody, V domains shown)
VH 1: EVQLVESGGGLVKPGGSLRLSCAASGFTFGSYDMNWVRQAPGKGLEWVSSISSGESYIYYAESVKGRFTISRDNAKNSLYLQMNSLRAEDTAVYYCARDVGGYAGYYGMDVWGQGTTVTVSS
VL 1: not shown
VH 2: EVQLVQSGAEVKKPGESLKISCKGSGYSFTTYWIGWVRQMPGKGLEWMGIIYPGDSDTRYSPSFQGQVTISADKSISTAYLQWSSLKASDTAMYYCARGRFRPRGRFDYWGQGTLVTVSS
VL 2: EIVMTQSPATLSVSPGERATLSCRASQSVSSNLAWYQQKPGQAPRLLIYGASTRATGIPARFSGSGSGTEFTLTISSLQSEDFAVYYCQQLFNHPPTFGGGTKVEIK
**Q.** What does the source list for B5?
**A.** Kd [4]: 2 nM; Kd [5]: 8 nM; Kd (FX zymogen [6]): 20 nM; rate of substrate (ADG299) cleavage by FIXa (amidolytic activity) [7]: 3 fold

B6: Fab portion of BIIB-9-484 (Fab, V domains shown)
VH: EVQLVESGGGLVKPGGSLRLSCAASGFTFSSYSMNWVRQAPGKGLEWVSSISSSSSYIYYADSVKGRFTISRDNAKNSLYLQMNSLRAEDTAVYYCARDVGGYAGYYGMDVWGQGTTVTVSS
VL: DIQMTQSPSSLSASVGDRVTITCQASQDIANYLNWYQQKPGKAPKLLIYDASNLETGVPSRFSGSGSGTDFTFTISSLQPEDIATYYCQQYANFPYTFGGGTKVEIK
notes: Fab
**Q.** Does B6 bind [8]?
**A.** binds

B7: BIIB-9-1335 (antibody, V domains shown)
VH: EVQLVESGGGLVKPGGSLRLSCAASGFTFSSYDMHWVRQAPGKGLEWVSSISSGSSYIYYADSVKGRFTISRDNAKNSLYLQMNSLRAEDTAVYYCARDVGGYAGYYGMDVWGQGTTVTVSS
VL: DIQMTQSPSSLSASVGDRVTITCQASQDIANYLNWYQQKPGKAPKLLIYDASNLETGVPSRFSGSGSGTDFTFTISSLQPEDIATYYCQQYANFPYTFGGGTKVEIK
**Q.** B7 was tested. Which “rate of ATIII inhibition of FIXa (ATIII-FIXa complex band on gel)” value [7] did it give?
**A.** ~3 fold

B8: BIIB-9-1336 one-armed (antibody, V domains shown)
VH: EVQLVESGGGLVKPGGSLRLSCAASGFTFGSYDMNWVRQAPGKGLEWVSSISSGESYIYYAESVKGRFTISRDNAKNSLYLQMNSLRAEDTAVYYCARDVGGYAGYYGMDVWGQGTTVTVSS
VL: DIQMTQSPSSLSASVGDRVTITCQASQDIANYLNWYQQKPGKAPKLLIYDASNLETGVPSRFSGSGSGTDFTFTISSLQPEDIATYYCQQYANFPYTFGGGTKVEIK
**Q.** B8 was tested. Which “rate of substrate (ADG299) cleavage by FIXa (amidolytic activity)” value [7] did it give?
**A.** 3 fold

B9: BIIB-9-484/BIIB-12-917 (bispecific antibody, V domains shown)
VH 1: EVQLVESGGGLVKPGGSLRLSCAASGFTFSSYSMNWVRQAPGKGLEWVSSISSSSSYIYYADSVKGRFTISRDNAKNSLYLQMNSLRAEDTAVYYCARDVGGYAGYYGMDVWGQGTTVTVSS
VL 1: not shown
VH 2: EVQLVQSGAEVKKPGESLKISCKGSGYSFTTYWIGWVRQMPGKGLEWMGIIYPGDSDTRYSPSFQGQVTISADKSISTAYLQWSSLKASDTAMYYCARGRFRPRGRFDYWGQGTLVTVSS
VL 2: EIVMTQSPATLSVSPGERATLSCRASQSVSSNLAWYQQKPGQAPRLLIYGASTRATGIPARFSGSGSGTEFTLTISSLQSEDFAVYYCQQLFNHPPTFGGGTKVEIK
**Q.** Does B9 bind (FIXa-SM (FIXa+EGR-CMK) [9])?
**A.** binds

B10: BIIB-12-894 (antibody, V domains shown)
VH: QLQLQESGPGLVKPSETLSLTCTVSGGSISSSSYYWGWIRQPPGKGLEWIGSIYYSGSTYYNPSLKSRVTISVDTSKNQFSLKLSSVTAADTAVYYCAREGAHSSMAGLDVWGQGTMVTVSS
VL: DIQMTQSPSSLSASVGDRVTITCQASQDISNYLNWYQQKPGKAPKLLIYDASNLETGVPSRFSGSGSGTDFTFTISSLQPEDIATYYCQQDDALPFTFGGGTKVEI
notes: IgG
**Q.** Does B10 bind (FXa-SM (FXa+EGR-CMK))?
**A.** binds

B11: BIIB-9-578 (antibody, V domains shown)
VH: QLQLQESGPGLVKPSETLSLTCTVSGGSISSSSYYWGWIRQPPGKGLEWIGSISYSGSTYYNPSLKSRVTISVDTSKNQFSLKLSSVTAADTAVYYCARDKYQDYSFDIWGQGTMVTVSS
VL: DIQMTQSPSSVSASVGDRVTITCRASQGIDSWLAWYQQKPGKAPKLLIYAASSLQSGVPSRFSGSGSGTDFTLTISSLQPEDFATYYCQQANFLPFTFGGGTKVEIK
notes: IgG
**Q.** Does B11 bind [1]?
**A.** binds

B12: BIIB-12-1320 (antibody, V domains shown)
VH: QLQLQESGPGLVKPSETLSLTCTVSGGSISSSSYYWGWIRQPPGKGLEWIGSIYYSGSTYYNPSLKSRVTISVDTSKNQFSLKLSSVTAADTAVYYCARGSGLLVREHYYYYMDVWGKGTTVTVS
VL: DIQMTQSPSSLSASVGDRVTITCRASQSISSYLNWYQQKPGKAPKLLIYAASSLQSGVPSRFSGSGSGTDFTLTISSLQPEDFATYYCQQADDTPWTFGGGTKVEIK
notes: IgG
**Q.** Does B12 bind (FXa-SM (FXa+EGR-CMK))?
**A.** binds

B13: BIIB-9-631 (antibody, V domains shown)
VH: QVQLVQSGAEVKKPGASVKVSCKASGYTFTSYYMHWVRQAPGQGLEWMGIINPSGGSTSYAQKFQGRVTMTRDTSTSTVYMELSSLRSEDTAVYYCARAENRGDYEAWGQGTLVTVSS
VL: DIQMTQSPSSVSASVGDRVTITCRASQGISRWLAWYQQKPGKAPKLLIYAASSLQSGVPSRFSGSGSGTDFTLTISSLQPEDFATYYCQQRTSFPLTFGGGTKVEIK
notes: IgG
**Q.** Does B13 bind [1]?
**A.** binds

B14: BS-027 (antibody, V domains shown)
VH: EVQLVQSGAEVKKPGESLKISCKGSGYSFTTYWIGWVRQMPGKGLEWMGIIYPGDSDTRYSPSFQGQVTISADKSISTAYLQWSSLKASDTAMYYCARGRFRPRGRFDYWGQGTLVTVSS
VL: EIVMTQSPATLSVSPGERATLSCRASQSVSSNLAWYQQKPGQAPRLLIYGASTRATGIPARFSGSGSGTEFTLTISSLQSEDFAVYYCQQLFNHPPTFGGGTKVEIK
notes: also called anti-FX arm of BS-027025 and BS-027125; BS-027 FX homodimer
**Q.** With B14 as the binder, how does the Kd (FX zymogen [10]) read?
**A.** 20 nM

B15: BIIB-12-917 (antibody, V domains shown)
VH: EVQLVQSGAEVKKPGESLKISCKGSGYSFTTYWIGWVRQMPGKGLEWMGIIYPGDSDTRYSPSFQGQVTISADKSISTAYLQWSSLKASDTAMYYCARGRFRPRGRFDYWGQGTLVTVSS
VL: EIVMTQSPATLSVSPGERATLSCRASQSVSSNLAWYQQKPGQAPRLLIYGASTRATGIPARFSGSGSGTEFTLTISSLQSEDFAVYYCQQLFNHPPTFGGGTKVEIK
notes: IgG
**Q.** Does B15 bind (activated Factor X (FXa))?
**A.** no binding (tested: 250 nM)
